According to patent US20240343811A1 (SHANDONG SIMCERE BIOPHARMACUTICAL, published 2024):
Changes are numbered by the printed parent chain. Like-named read-outs stand apart in the source and are kept apart here. Blank lines part the entries; values can stand above or below the binder they belong to.

Tests used:
[1] = biological target: T1, human CD16a (158F), full length, on FlpinCHO cells (human, UniProt P08637 17-254); test: FACS on FlpinCHO cells
Experimental: (§1) The required cells were scale-up cultured in a T-75 cell culture flask to the logarithmic growth phase. The medium was aspirated, and the cells were washed twice with a PBS buffer and then digested with trypsin. After the digestion was terminated, the cells were washed twice with the PBS buffer. The cells were counted, and then the cell pellet was resuspended with a [PBS+2% (w/w) BSA] blocking solution to 2×10⁶ cells/ml, and added to a 96-well FACS reaction plate at 50 μl/well. […] 50 μl/well of the antibody to be detected was added at different concentrations, and incubated on ice for 1 hour. […] The mixture was centrifuged and washed 5 times with PBS, and FACS (FACS Canto II, purchased from BD Company) was used for detection and result analysis. Data analysis was performed by software (CellQuest) to obtain the mean fluorescence intensity (MFI) of the cells. Then, software (GraphPad Prism8) was used for analysis, data fitting and EC50 value calculation.
(§2) The binding of a humanized antibody to FlpinCHO-human CD16a cells was detected according to the method of Example 3.1.

[2] = biological target: T2, human CD16a (158V), full length, on cells (human, UniProt P08637 17-254); test: FACS on FlpinCHO cells
T2 construct: also used as target for the bought Jurkat-NFAT reporter line stably expressing human CD16a (158V); also called FlpinCHO-human CD16a (158V); FlpinCHO-CD16a (158V)
T2 sequence (P08637 17-254 F176V limits assumed): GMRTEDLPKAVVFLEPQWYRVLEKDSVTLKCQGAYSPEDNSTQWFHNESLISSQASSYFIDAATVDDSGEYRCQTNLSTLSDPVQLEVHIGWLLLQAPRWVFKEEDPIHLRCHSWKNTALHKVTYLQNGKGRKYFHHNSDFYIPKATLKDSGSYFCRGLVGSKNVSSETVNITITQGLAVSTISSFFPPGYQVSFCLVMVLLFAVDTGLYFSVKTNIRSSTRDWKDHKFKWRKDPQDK
Experimental: as §1, §2

[3] = biological target: T3, human CD16b (NA1), full length, on FlpinCHO cells (human, UniProt O75015 17-200); test: FACS on FlpinCHO cells
T3 construct: also called FlpinCHO-human CD16b (NA1)
T3 chain: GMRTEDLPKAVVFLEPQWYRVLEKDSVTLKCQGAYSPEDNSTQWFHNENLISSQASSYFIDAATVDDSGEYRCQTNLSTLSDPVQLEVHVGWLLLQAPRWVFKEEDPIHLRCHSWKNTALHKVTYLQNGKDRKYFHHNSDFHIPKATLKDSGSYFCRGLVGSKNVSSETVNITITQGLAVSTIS
Experimental: as §1
(§3) The binding of an antibody to be detected to FlpinCHO-human CD16b cells was detected according to the method of Example 3.1.

[4] = biological target: T4, human CD16b (NA2), full length, on FlpinCHO cells (human, UniProt O75015 17-200); test: FACS on FlpinCHO cells
T4 construct: also called FlpinCHO-human CD16b (NA2)
T4 chain: T3 chain with R20S, N49S, D66N, V90I
Experimental: as §1, §3

[5] = biological target: T2, human CD16a (158V), full length, on …; test: cell-based or functional assay
Human CD16a (158F)-his = biological target: T5, Human CD16a (158F)-his (human); test: SPR (Biacore), antibody captured on Protein A
T5 construct: entry holds ECD, AVI tag, linker and His tag
T5 sequence (chain, as listed by the source limits assumed): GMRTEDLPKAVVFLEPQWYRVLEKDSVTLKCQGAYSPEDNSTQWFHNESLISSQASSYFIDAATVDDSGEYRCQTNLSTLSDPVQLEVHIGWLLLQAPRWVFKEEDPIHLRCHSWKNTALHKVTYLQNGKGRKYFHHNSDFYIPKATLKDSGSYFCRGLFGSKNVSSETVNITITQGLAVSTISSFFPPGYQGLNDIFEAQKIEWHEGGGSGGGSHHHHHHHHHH
Experimental: (§4) A sample buffer and a running buffer were HBS-EP+ (10 mM HEPES, 150 mM NaCl, 3 mM EDTA and 0.05% surfactant P20) (GE Healthcare; BR-1006-69). The flow-through cell was set to 25° C. The sample block was set to 16° C. Both were pretreated with the running buffer. In each cycle, an antibody to be detected was first captured with a Protein A chip, and then a single concentration of CD16 antigen protein was injected. The binding and dissociation processes of the antibody and the antigen protein were recorded, and finally Glycine pH 1.5 (GE Healthcare; BR-1003-54) was used to complete chip regeneration. Binding was measured by injecting different concentrations of recombinant human CD16-ECD his proteins in a solution for 240 s with a flow rate of 30 μL/min, wherein a total of 5 concentrations were prepared by using 200 nM as a starting concentration (see the detailed results for the actual concentration in the test) and performing a 1:1 dilution. The dissociation phase was monitored for up to 600 s and was triggered by switching from a sample solution to a running buffer. The surface was regenerated by washing with a 10 mM glycine solution (pH 1.5) for 30 s at a flow rate of 30 μL/min. Bulk refractive index difference was corrected by subtracting the response obtained from the goat anti-human Fc surface. Blank injection was also subtracted (=double reference). For calculation of apparent KD and other kinetic parameters, Langmuir 1:1 model was used.

[6] = biological target: T1, human CD16a (158F), full length, on …; test: FACS on FlpinCHO cells; remark: listed apart in the source
Experimental: as §1

[7] = biological target: T2, human CD16a (158V), full length, on …; test: FACS on FlpinCHO cells; remark: listed apart in the source
Experimental: as §1

[8] = biological target: T3, human CD16b (NA1), full length, on …; test: FACS on FlpinCHO cells
Experimental: as §1, §3

[9] = biological target: T4, human CD16b (NA2), full length, on …; test: FACS on FlpinCHO cells
Experimental: as §1, §3

[10] = biological target: T6, CD16 on primary human NK cells (human, UniProt P08637 17-254); test: FACS on human NK cells
T6 construct: whole, on cells; also called resting NK cells
T6 sequence (P08637 17-254): as the sequence (P08637 17-254 F176V limits assumed) above, with V160F counted along it
Experimental: as §1
The binding of an antibody to be detected to freshly prepared human NK cells (Milestone Biotechnologies, catalog number: PB56-N-Custom) was detected according to the method of Example 3.1.

[11] = biological target: T2, human CD16a (158V), full length, on …; test: cell-based or functional assay; remark: listed apart in the source
[12] = biological target: T1, human CD16a (158F), full length, on …; test: FACS, biotinylated antibody
Experimental: as §1, with “The” for “The required cells were scale-up cultured in a T-75 cell culture flask to the logarithmic growth phase. The”
(§5) An antibody to be detected was labeled in advance according to the instructions of a biotin labeling kit (EZ-Link™ NHS-PEG4 Biotinylation Kit, purchased from Thermofisher Scientific, catalog number: 21455). […] Detection was performed according to the method of Example 3.1, wherein the biotinylated antibody was detected with fluorescein APC-labeled Streptavidin (High Concentration) (purchased from Biolegend, catalog number: 405243).

[13] = biological target: T2, human CD16a (158V), full length, on …; test: FACS, biotinylated antibody
Experimental: as §1, with “The” for “The required cells were scale-up cultured in a T-75 cell culture flask to the logarithmic growth phase. The”
as §5

Human CD16a (158V)-his = biological target: T7, Human CD16a (158V)-his (human); test: SPR (Biacore), antibody captured on Protein A
T7 construct: entry holds ECD, AVI tag, linker and His tag
T7 sequence (chain, as listed by the source limits assumed): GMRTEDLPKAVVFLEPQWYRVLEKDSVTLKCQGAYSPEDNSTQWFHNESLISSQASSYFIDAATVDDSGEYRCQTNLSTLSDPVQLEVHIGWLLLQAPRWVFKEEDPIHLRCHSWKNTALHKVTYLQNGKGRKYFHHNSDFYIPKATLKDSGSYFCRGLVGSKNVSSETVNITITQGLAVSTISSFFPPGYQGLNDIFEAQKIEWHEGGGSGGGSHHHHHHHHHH
Experimental: as §4

[14] = biological target: T1, human CD16a (158F), full length, on …; test: FACS, biotinylated antibody, +10 mg/mL human immunoglobulin
Experimental: as §1, with “The” for “The required cells were scale-up cultured in a T-75 cell culture flask to the logarithmic growth phase. The”
as §5

[15] = biological target: T2, human CD16a (158V), full length, on …; test: as above
Experimental: as §1, with “The” for “The required cells were scale-up cultured in a T-75 cell culture flask to the logarithmic growth phase. The”
as §5

T1 sequence (P08637 17-254 limits assumed): as the sequence (P08637 17-254 F176V limits assumed) above, with V160F counted along it

EC50 [1]: 0.47 nM
Maximum mean fluorescence intensity [1]: 9140
EC50 [2]: 0.49 nM
Maximum mean fluorescence intensity [2]: 8390
EC50 [3]: 0.35 nM
Maximum mean fluorescence intensity [3]: 56900
Maximum mean fluorescence intensity [4]: 174
binding result [4]: no binding (tested: 100 nM)
EC50, activation activity for Jurkat cell [5]: 0.02 nM
Maximum fluorescence value [5]: 171000
Kd (Human CD16a (158F)-his): 28.7 nM
koff (Human CD16a (158F)-his): 0.00129 s⁻¹
kon (Human CD16a (158F)-his): 44800 M⁻¹ s⁻¹
B1: VHH06-03 humanized VHH-Fc antibody (Fc fusion)
chain: EVQLVESGGGVVQPGGSLRLSCAASGSTWTTYAVRWYRQAPGKQREWVAFISVDGSTNYADSVKGRFTISRDNSKNTVYLQMNSLRAEDTADYICRVGGQYWGQGTMVTVSSEPKSSDKTHTCPPCPAPEEFGGPSVFLFPPKPKDTLMISRTPEVTCVVVAVSHEDPEVKFNWYVDGVEVHNAKTKPREEQYNSTYRVVSVLTVLHQDWLNGKEYKCKVSNKALPAPIEKTISKAKGQPREPQVYTLPPSREEMTKNQVSLTCLVKGFYPSDIAVEWESNGQPENNYKTTPPVLDSDGSFFLYSKLTVDKSRWQQGNVFSCSVMHEALHNHYTQKSLSLSPGK

EC50 [6]: 0.44 nM
Maximum mean fluorescence intensity [6]: 5600
EC50 [7]: 0.69 nM
Maximum mean fluorescence intensity [7]: 6490
EC50 [8]: 0.44 nM
Maximum mean fluorescence intensity [8]: 52100
Maximum mean fluorescence intensity [9]: 178
binding result [9]: no binding (tested: 100 nM)
EC50 [10]: 0.74 nM
Maximum mean fluorescence intensity [10]: 2400
EC50, activation activity for Jurkat cell [11]: 0.02 nM
Maximum fluorescence value [11]: 167000
EC50 [12]: 0.4 nM
Maximum mean fluorescence intensity [12]: 5240
EC50 [13]: 0.49 nM
Maximum mean fluorescence intensity [13]: 7260
Kd (Human CD16a (158F)-his): 42.8 nM
koff (Human CD16a (158F)-his): 0.00273 s⁻¹
kon (Human CD16a (158F)-his): 63800 M⁻¹ s⁻¹
Kd (Human CD16a (158V)-his): 14.1 nM
koff (Human CD16a (158V)-his): 0.0016 s⁻¹
kon (Human CD16a (158V)-his): 114000 M⁻¹ s⁻¹
EC50 [14]: 1.41 nM
Maximum mean fluorescence intensity [14]: 6570
EC50 [15]: 1.41 nM
Maximum mean fluorescence intensity [15]: 9030
B2: VHH15 VHH-Fc antibody (Fc fusion)
chain: EVQLVESGGGLVQAGGSLRLSCVASTSTLTTYAVRWYRQAPGKQREWVAFISVDGNTNYPDSVKGRFIVSRDNAKNTVYLQMNSLKPEDTADYICRAGGQYWGQGTQVTVSSEPKSSDKTHTCPPCPAPEFEGGPSVFLFPPKPKDTLMISRTPEVTCVVVAVSHEDPEVKFNWYVDGVEVHNAKTKPREEQYNSTYRVVSVLTVLHQDWLNGKEYKCKVSNKALPAPIEKTISKAKGQPREPQVYTLPPSREEMTKNQVSLTCLVKGFYPSDIAVEWESNGQPENNYKTTPPVLDSDGSFFLYSKLTVDKSRWQQGNVFSCSVMHEALHNHYTQKSLSLSPGK

EC50 [6]: 0.44 nM
Maximum mean fluorescence intensity [6]: 5620
EC50 [7]: 0.63 nM
Maximum mean fluorescence intensity [7]: 6480
EC50 [8]: 0.34 nM
Maximum mean fluorescence intensity [8]: 51400
Maximum mean fluorescence intensity [9]: 140
binding result [9]: no binding (tested: 100 nM)
EC50 [10]: 0.45 nM
Maximum mean fluorescence intensity [10]: 2450
EC50, activation activity for Jurkat cell [11]: 0.02 nM
Maximum fluorescence value [11]: 157000
EC50 [12]: 0.31 nM
Maximum mean fluorescence intensity [12]: 4690
EC50 [13]: 0.42 nM
Maximum mean fluorescence intensity [13]: 6980
Kd (Human CD16a (158F)-his): 39.9 nM
koff (Human CD16a (158F)-his): 0.00247 s⁻¹
kon (Human CD16a (158F)-his): 61800 M⁻¹ s⁻¹
Kd (Human CD16a (158V)-his): 13.6 nM
koff (Human CD16a (158V)-his): 0.00146 s⁻¹
kon (Human CD16a (158V)-his): 107000 M⁻¹ s⁻¹
EC50 [14]: 1.2 nM
Maximum mean fluorescence intensity [14]: 6040
EC50 [15]: 1.39 nM
Maximum mean fluorescence intensity [15]: 9200
B3: VHH10 VHH-Fc antibody (Fc fusion)
chain: B2 chain with E1Q, A24G, T26S, N56S

EC50 [1]: 0.5 nM
Maximum mean fluorescence intensity [1]: 9160
EC50 [2]: 0.5 nM
Maximum mean fluorescence intensity [2]: 8460
EC50 [3]: 0.33 nM
Maximum mean fluorescence intensity [3]: 53500
Maximum mean fluorescence intensity [4]: 167
binding result [4]: no binding (tested: 100 nM)
EC50, activation activity for Jurkat cell [5]: 0.02 nM
Maximum fluorescence value [5]: 173000
Kd (Human CD16a (158F)-his): 32.1 nM
koff (Human CD16a (158F)-his): 0.00139 s⁻¹
kon (Human CD16a (158F)-his): 43100 M⁻¹ s⁻¹
B4: VHH06-07 humanized VHH-Fc antibody (Fc fusion)
chain: B1 chain with M107Q

EC50 [1]: 0.3 nM
Maximum mean fluorescence intensity [1]: 8930
EC50 [2]: 0.28 nM
Maximum mean fluorescence intensity [2]: 8240
EC50 [3]: 0.25 nM
Maximum mean fluorescence intensity [3]: 59800
Maximum mean fluorescence intensity [4]: 204
binding result [4]: no binding (tested: 100 nM)
EC50, activation activity for Jurkat cell [5]: 0.01 nM
Maximum fluorescence value [5]: 167000
Kd (Human CD16a (158F)-his): 24.6 nM
koff (Human CD16a (158F)-his): 0.00116 s⁻¹
kon (Human CD16a (158F)-his): 47100 M⁻¹ s⁻¹
B5: VHH06-06 humanized VHH-Fc antibody (Fc fusion)
chain: B1 chain with I69V
